This note sets out measurements from the DeepSol protein solubility set.

The series can be described thus: soluble on expression in E. coli; label from the status in PepcDB or PDB records.
In the case of “MSQRTSEENRYEQLHRFAAKIHSTMQIDDVLEEIICTLQNVYPAFTYHLLLSHDNHVCGNLPIKTLALDESEGQPAALRAFLTGQVQCEETAAPPRSVLYAPIKGVQAVYGVIQIIAPYAAPFPKREINFISLLAGTAGRALENAKLYEQSRRLEHHHHHH”, the “soluble on expression in E. coli” value is listed as “soluble”.

In the case of “MENVCFQQRLRDLETRVRKWKFLKLGLTEVRLRPRDRRSTSVDQKHKECSSTSSSPQHQRPNNIGYLTSPMERKFTPLSMKPSPSRRDTEKDALEYEFLEGYKKSGTLEIDGEKQVVDPNEIHIISLLGSGSCGVVESATVRSKLMAVKTMYKNDNKENLKRILRDVRIMSMCNSPFIVTSYGYFMFDSSVKICMQIMSACCEKLLRRIYHSKLDFFPEFVAGHIVYSAISALDYLKEKHSIIHRDIKPSNILFDDSGNVKLCDFGISGFMTDSMAHSKSAGCPPYMAPERLTIETNSKYDVRSDVWSLGITVYQLVTGLYPFPLNDMEFTTLTIIANLNLPSPSLREETKRSFSPLFIEFLDLCLRKDVRERPEYRQLMKHDFYLDYDPASGSAYKFKAINGKCNQVADWFVDVIRLSKTEDELKSIPNTPCVN”, the “soluble on expression in E. coli” value is “not soluble”.

Turning to “AIAPTATYAALIHADLDVLWGLLLDKLQSDEQFMPGLERAEIVPLSVAEDPTGVARFRQQHDRRLYFSDGRLVEERVTIDEERKNILLELRNDARYTGYVSTVLLPCPFPEATSGAHVLVRTMDWRAKRSLTDDEIEEGELLATKIRESTLRLKHEVESLRWSLDDSKDPDDE”, the “soluble on expression in E. coli” value was “soluble”.

Consider “MSDSKPRDVQVLPIATNTKVLRARSWSRLRFEIEYALERGTTSNSYVIEGDKTAIIDPPVESFMKIYLEALQQTVNLKKLDYVILGHFSPNRIPTFKALLELAPQITFVCSLPAAGDLRAAFPDDNLNILPMRGKETLDLGKGHVLKFLPIPSPRWPAGLCTYDVQTQILYTDKIFGAHICGDDVFDDNWESFKEDQRYYFNCLMAPHAIHVEAALEKISDLQVRLYAVGHGPLVRTSLIALTQAYADWSKAQKDREISVALLYASAYGNTATIARAIALGLTKGGVAVKSINCEFATPEEIQTNLEQVDGFLIGSPTIGGHAPTPINTALGIVLKVGDNNKLAGVFGSYGWSGEALDMIEGKLRDAGYRFGLDTLKVKFKPDDVTLKFCEEVGTDFAQTLKKAKKVRVPQQAATPVEQAVGRIVGSVCVITAKQGDVSTGMLGSWVSQATFNPPGLTVAIAKERAIESLMYPGGKFALNILSEGNHLEYMKHFRKNFAPGEDRFANFTTTEADNGCTVLADALAYVECSVDQRLECGDHWVVYATVDNGKLLKPDDVTAINHRKTGNHY”, for which the “soluble on expression in E. coli” value is given as “soluble”.

“MRDFGEILAENRKKKGYSQSDLVNLLSQEGIQVTTKALSKWENNAREPALHVFLTLCQLLDIEDIYESFFGENPYNIMSGLNEEGRNKLIEFADILKASKKFSPLSAKIIPFHHPVEITWEPVSAGTGNYLEDSVKETYDVGHLAPEQTDFGVRISGDSMEPLYHTDDVAWIQKKDSLANGEIGIFYLNGNTYIKELHDEPDGVYLISLNQKYRPIQVLESDSFKIFGKVIGKCKGAEIPGFHLEHHHHHH”: the “soluble on expression in E. coli” value is on record as “soluble”.

On to “MALSILFLSIASLTLSSSLIIDHYFHLSFLRNPLKSQSGGGKMKPKVFITREIPEVGIKMLEDEFEVEVWGDEKEIPREILLKKVKEVDALVTMLSERIDKEVFENAPKLRIVANYAVGYDNIDIEEATKRGIYVTNTPDVLTDATADLAFALLLATARHVVKGDRFVRSGEWKKRGVAWHPKWFLGYDVYGKTIGIIGLGRIGQAIAKRAKGFNMRILYYSRTRKEEVERELNAEFKPLEDLLRESDFVVLAVPLTRETYHLINEERLKLMKKTAILINIARGKVVDTNALVKALKEGWIAGAGLDVFEEEPYYNEELFKLDNVVLTPHIGSASFGAREGMAELVAKNLIAFKRGEIPPTLVNREVIKIRKPGFE”, for which the “soluble on expression in E. coli” value is listed as “soluble”.

As to “MGHHHHHHSHMRKIDLCLSSEGSEVILATSSDEKHPPENIIDGNPETFWTTTGMFPQEFIICFHKHVRIERLVIQSYFVQTLKIEKSTSKEPVDFEQWIEKDLVHTEGQLQNEEIVAHGSATYLRFIIVSAFDHFASVHSVSAEGTVVSNLSS”, the “soluble on expression in E. coli” value is given as “soluble”.

Regarding “GINLTPEEKFEVFGDFDPDQYEEEVRERWGNTDAYRQSKEKTASYTKEDWQRIQDEADELTRRFVALMDAGEPADSEGAMDAAEDHRQGIARNHYDCGYEMHTCLGEMYVSDERFTRNIDAAKPGLAAYMRDAILANAVRHTP”, the “soluble on expression in E. coli” value is on record as “soluble”.

In the case of “MTFTGLPPEDVPALMTGAVIPHPSVAGRADAYLPSPCIQNHAANLAFLPDGTLSCVWFGGTMEGMRDISIYMSRLPPGSGRWSEPEKMSDDPEKSEQNPLIFNAPDGKTWLLYTSQTSGNQDGSIVKCRISDDGGKTFGPVQILCDSPGTFVRQQIVVNDRGDWLLPIFRCVGLEGQRWSGDADTAAVLISRDGGASWQMRDIPDSIGAVHMNILPLGGCEMIAFYRNRFAETILSSRSADGGETWSPPEPTELPNNNSSIQATVLDNGGIAMVYNHSNATMSDARRQSLYDEIEGDECGENAAVVADAGRKAVWGVPRAPLSLAISRDGGRTFPHRIDLDTGDGFCLSNNSKDSLNREFSYPSVIEGSDGTLHVAYTYYRRAIKYVRLAPRALPLEHHHHHH”, the “soluble on expression in E. coli” value is “soluble”.

On to “MVSIKEHLEELLESFDYSGDVEERIRLLRAAIGRIGNMFYGTENEEIYADQVRRIKLRLRELRETYATSEDNWRELMDNLEELRDQIERLAIRGGIIEK”, for which the “soluble on expression in E. coli” value is “not soluble”.

Take “DLYRRQQGELKQTKLQNSILLSVSHDLRTPLATIIGTLTTLNEYMPKLNDLERKELLDSATSESHRLHQYIENLLQATKLQHGTLKITKKDEPIANIVRDAVSRLPNYTEKVSMNMDDSVGYLSVSRSL”: the “soluble on expression in E. coli” value is on record as “not soluble”.

Regarding “MKAFDQVNHSLLLHKLHDFGINPLFCNWFHDFLSSRTFSVKVNNHIDPNIHPIPSGVPQGSVSGPFLFLIFINSLLLSLPPTISCSAFADDLKVYSHSPPLIQTTIDLITAWSENNKLPLAHSKTCLLHLGKKNPKTVYKINNLPISPSNVARDLGILTDSKLTFKTHIKKIVFLALLRCKQLLKSFKSLCPEFCCNLFKTYILPLIEYGSAVYSPKPSSSLSTLLEKPLRWYSQKVLQKCNISYSSYNDRLKSLNLHSIRHRRLKSKLILLYKFCCGTSFLPQKETYFKLSTSSRRPMRIICHNPSSNNFFSDTISFWNAITNNCDTFLSPIHFENLVDNSITRL”, the “soluble on expression in E. coli” value is “not soluble”.

On to “ITELTNIHLIKGNLQANSKNEVFAELAQMLLENNRISNKEDFLNDIEIRERLSVTSMDGIAYPHSKSKAVTKPAIAVGVKHEGIEYGDEEGIKPTVFFMIASPDNGADHHIYVLQELFGKFSEEFIEDIHNAKNEHQILNISIQS”, for which the “soluble on expression in E. coli” value is given as “soluble”.

Take “RDTVVTLLLDNSGSMRGRPISIAAICADVLARTLERCNVKVEILGFTTRAWKGGLAREAWLNEGRPQQPGRLNDLRHIIYKAADAPMRRTRQNLGLMMKEGLLKENIDGEALEWAHRRMLGRREQRKILMVISDGAPVDDSTLSVNPANYLEKHLRDVIAMVERRKQVELLAIGIGHDVTRYYQRAVTITDVEQLAGAMTEQLAALFDSDPRARARVMGMKRAS”: the “soluble on expression in E. coli” value was “not soluble”.

Consider “MRIRIAHSPDSDDAFMFYPLVKGLIDTEGLEIEHVLADIETLNREALKGTYEVSAISFHAYPYVADKYAVLPSGGSIGEGYGPIVVAREELGTLKGKKIAVPGELTTAFLTLKLYEPDFEHVVIPFDRIIQAVLEGKVDAGLVIHEGQLSYKDYGLKKIVDLGEWWKEKYGLPLPLGCNVVRKDLGREVVKKIERLMRESVEYALKERKRALEYAINYARDLSEDLERTQKFVSMYVNERTVDYGEDGREAVRLLLRLGKERGIIKAEIPEKIFSDELF”, for which the “soluble on expression in E. coli” value is reported as “soluble”.

As to “MSLKKRRTIGFLVNDIDVSYSNLVYLMTKKAAEKYDCNLIVYEGRSFNNPSMADSQHQISYSFVDNTRLDGIIITSATIACFISDEEFVEFCKRYEGIPLVSLGIVVPHATSILVDNKPGMKSQVEHLIKDHGFKKIVYISGPPTNTDSVERLEAYCEALRENDIEVDDGLIFYGDFMAQSGYDIIKEIIKNGIEYDAVVCANDEMAFGAIKGIRDLKDAYNLDLTQKGVICGFDDSITSRLVKPSLTTVRQPIEEMCFYAVEAILKKIEGEKVEDVVKLPSVLVKRESCGEGHHHHHH”, the “soluble on expression in E. coli” value is on record as “soluble”.

In the case of “MKNTFLYFRWEDLHGEIGVDSFNLLRASYSNLSEQQLVELIKELISIEREDIAAKFDIHLSENAPVFDERQHVVYKGVAGDMNYKDMLLSLVTALDLTNTLDHVQNILSLAKCLRSFDREIFARFAKDIAEEVYYSLKLEHHHHHH”, the “soluble on expression in E. coli” value was “soluble”.

As to “MAHHHHHHMLNALGITSPRHDALIAKFLKAMAVEGGASEATKRDEAVDAARFVYVFSTVWRAAVTHRTPRSPVSTRVSAPPRSPPAAQQHGNSPDGATMRHAYSREVSCRGAPPSHMKAAPATEVGSSGGSGSAVSARSSSSPSAVWSSSEGGEGAAHSHTESASPLTSCGGGDERRSDAAESDADFLRTNISDASSSIPDSSEKPQAGVRSEELSPMSVEPSAGLDPSPEPCNPGEPVIITSARSSVTPRTHHCSPFAAASRLGSASVSRSRRMSSSLRVIPSDSHLLSSTTSRELKRATKRVPGGLMRECTFKPVINSVYEQSPVSFSSTAIVQKRKPASTAPPTFQPNTQQFHQARDSLARWTRQPIKDNSDYRGEAAANPLATGVETAVRRMIAARQQRQRSQSPRPSLQKGSHHSAPAPQSTVRAPVAHPRKPLLYVDVDLPQGQRDRLALYTGDDVQDVAQRFSILHGLSESLCQRLETALTAELCALSVGKAA”, the “soluble on expression in E. coli” value is recorded as “not soluble”.

For the sequence “MQYDYLEALVKDLSLYKIKTEINMKNLRIWQTLSLWLVLLVTSLPLSAQTALLEKLGKIADITGTQPLESTEFVEKYVAYFTQPLDHRHPEKGSFSQRVIVSHVGFDRPTVMVTEGYGASYALGANYREELSKLFNTNMIFVEYRYFLESTPTPKDWQYLTAENSAEDLHAVREAFRSIYPGKWIATGISKGGQTAMLYRTFFPEDVDISVPYVAPLCYGVEDGRHEPFLKMVSTPEARKKIEDFQLEVLKRKPTLLPRFEKYCAGKKYKFRAPVEEIYDYSVLEYSFSIWQWGTPVDQIPAVTASDDELFKHLLAISEPSYFEEEGANTSFFVQAARELGYYGYDIRPFKKYLTIKTSKDYLKRLMLPEELGDMKFDKTLSRKIIHFLKNNDPKMIFIYGQNDPWTAAGVTWLKGKKNIHVFVEPNGSHLARIGTLPQKEKEEAIGLIKKWLEE”, the “soluble on expression in E. coli” value is given as “not soluble”.

For the sequence “MFGNHGQLFRLSVFRSADTAQQFLRQCYQQLQRDDAVQRSYANCYPFLYYLEHGQNFYAAAQQAPLSIKPVLLFYGMVQLLKACLLTVDPDYPESTSVLAHGVSARKRKKQGYEFLDDEVKIQKNGLFAHFSEKMFHVKQEAGEKFRMGTLLQRIGELHETFFLLSGRKKPLSLPVVHTASPPMLAIPKVILDHYHMSLSRFVQYLCEEGQGKRLSFAKEEGEFLYFHIESPLSPAGEGPFLFHLDGTLRIPVKKEKTFSLPEIHAHYLLLYNLSMISRYETEWWSELLHSYPSKAYTFILEFLSVSAEKVPLLLHEYLMRKFLG”, the “soluble on expression in E. coli” value is listed as “not soluble”.

In the case of “MTSFNSFMRPLAAAILSALVTLAPVAPQAQEAVRGAVTNLPIPRFVSMKANEGNVRRGPSLTHRIDWVFKRRDMPLQITAEHGHWRKVQDRDGAGGWVHYALLSGVRTVLVEKDMMPLYARPDPASQVAAHFEMGVVARLGTCTQDWCRISAGGYRGWAPKENLWGVGTDEIRELEHHHHHH”, the “soluble on expression in E. coli” value is reported as “not soluble”.
